Measured values from PMC4344510.
Where two headings read alike, the source gives them in different places.

Assays:
Hfq F42S = Hfq F42S (Escherichia coli, UniProt P0A6X3 1-102, F42S); assay: fluorescence polarization
Hfq N28A [1] = biological target: T1, Hfq N28A (Escherichia coli, UniProt P0A6X3 1-102, N28A); assay: fluorescence polarization
Hfq N48A [2] = biological target: T2, Hfq N48A (Escherichia coli, UniProt P0A6X3 1-102, N48A); assay: fluorescence polarization
Hfq WT [3] = biological target: T3, Hfq WT (Escherichia coli, UniProt P0A6X3 1-102); assay: fluorescence polarization
Hfq65 R16A/R17A = Hfq65 R16A/R17A (Escherichia coli, UniProt P0A6X3 1-65, R16A;R17A); assay: NMR
Hfq N28A [4] = biological target: T1, Hfq N28A; assay: fluorescence polarization; remark: listed apart in the source
Hfq N48A [5] = biological target: T2, Hfq N48A; assay: fluorescence polarization; remark: listed apart in the source
Hfq WT [6] = biological target: T3, Hfq WT; assay: fluorescence polarization; remark: listed apart in the source
Hfq N28A [7] = biological target: T1, Hfq N28A; assay: fluorescence polarization; remark: listed apart in the source

Binder | binding result (Hfq F42S) | Kd (Hfq N48A [2]) | Kd (Hfq WT [3]) | binding result (Hfq65 R16A/R17A) | other results
AUAACUA (ssRNA) [Aus (FAM)] | binds | 16.8 nM | 22 nM |  | binding signal (Hfq N28A [1]): ~6 fold weaker than WT
AACUAAA (ssRNA) [Ads] |  |  |  | binds | 
AAUAACUAAA (ssRNA) [OxyS 65-74 10-nt] |  |  | 13 nM |  | 
AAAAAAA (ssRNA) [A7 (FAM)] |  |  |  |  | binding signal (Hfq N28A [4]): ~40 fold weaker than WT; binding signal (Hfq N48A [5]): ~27 fold weaker than WT
AACUAAA (ssRNA) [Ads (FAM)] | binds | 92.8 nM |  |  | Kd (Hfq WT [6]): 1490 nM; binding result (Hfq N28A [7]): binds
AUAACUA (ssRNA) [Aus] |  |  |  | binds | 
